Data: PMC8837617 (2022)
No end group written: not given here. *: point of attachment. 5FAM = O=C1OC2(c3ccc(O)cc3Oc3cc(O)ccc32)c2ccc(C(=O)*)cc21

Target: MAPK ERK2 (human, UniProt P28482 1-360)
Assay: FP

Sequence of MAPK ERK2 (P28482 whole entry): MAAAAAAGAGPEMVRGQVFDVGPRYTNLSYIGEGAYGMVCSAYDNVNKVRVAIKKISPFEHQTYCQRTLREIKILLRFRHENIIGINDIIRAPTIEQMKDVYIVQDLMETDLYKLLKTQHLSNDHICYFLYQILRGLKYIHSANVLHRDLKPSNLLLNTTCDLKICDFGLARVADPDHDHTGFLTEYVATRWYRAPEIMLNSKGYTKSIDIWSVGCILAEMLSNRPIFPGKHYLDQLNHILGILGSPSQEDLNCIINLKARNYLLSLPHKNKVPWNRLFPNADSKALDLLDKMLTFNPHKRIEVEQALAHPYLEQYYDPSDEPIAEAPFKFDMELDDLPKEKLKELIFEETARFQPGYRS

With 5FAM-RLQERRGSNVALMLDV [fluorescent reporter peptide fl-HePTP] as the binder, how does the Kd read?
The Kd was 23.9 µM.
